{
  "source": "patent US8445246B2",
  "about": "“Flavin-binding glucose dehydrogenases” (Kikkoman Corporation, priority 2009, dated 2013)",
  "molecules": {"B1": {"name": "Aspergillus niger-derived GOD: commercially available glucose oxidase derived from Aspergillus niger (GOD, product of Biozyme Laboratories) (protein, UniProt P13006 17-605, looked up)", "Glucose oxidase": "LPHYIRSNGIEASLLTDPKDVSGRTVDYIIAGGGLTGLTTAARLTENPNISVLVIESGSYESDRGPIIEDLNAYGDIFGSSVDHAYETVELATNNQTALIRSGNGLGGSTLVNGGTWTRPHKAQVDSWETVFGNEGWNWDNVAAYSLQAERARAPNAKQIAAGHYFNASCHGVNGTVHAGPRDTGDDYSPIVKALMSAVEDRGVPTKKDFGCGDPHGVSMFPNTLHEDQVRSDAAREWLLPNYQRPNLQVLTGQYVGKVLLSQNGTTPRAVGVEFGTHKGNTHNVYAKHEVLLAAGSAVSPTILEYSGIGMKSILEPLGIDTVVDLPVGLNLQDQTTATVRSRITSAGAGQGQAAWFATFNETFGDYSEKAHELLNTKLEQWAEEAVARGGFHNTTALLIQYENYRDWIVNHNVAYSELFLDTAGVASFDVWDLLPFTRGYVHILDKDPYLHHFAYDPQYFLNELDLLGQAAATQLARNISNSGAMQTYFAGETIPGDNLAYDADLSAWTEYIPYHFRPNYHGVGTCSMMPKEMGGVVDNAARVYGVQGLRVIDGSIPPTQMSSHVMTVFYAMALKISDAILEDYASMQ"}},
  "key": {"[1]": {"experiment": "GDH activity measurement (PMS/DCIP, absorbance at 600 nm)", "assay_type": "biochemical", "settings": "purified enzymes / commercial GOD", "method": "Specifically, the activity of the flavin-binding GDH is measured in the following manner, according to the invention. A mixture of 1.79 mL of 100 mM phosphate buffer (pH 7.0), 0.08 mL of a 1.25 M D-glucose solution and 0.01 mL of a 20 mM DCIP solution is warmed at 37° C. for 5 minutes. Next, 0.02 mL of a 20 mM PMS solution and 0.1 mL of an enzyme sample solution are added, and reaction is initiated. The absorbance is measured at the start of the reaction and periodically thereafter, the reduction in absorbance at 600 nm per minute (ΔA600) as the enzyme reaction proceeds is determined, and the flavin-binding GDH activity is calculated by the following formula. […]\nThe value of 2.0 in the formula is the liquid volume (mL) of reaction reagent+enzyme reagent, 16.3 is the millimolar molecular absorption coefficient (cm^2/μmol) under the activity measuring conditions, 0.1 is the liquid volume (mL) of the enzyme solution, 1.0 is the optical path length (cm) of the cell, ΔA600blank is the reduction in absorbance at 600 nm per minute, when the reaction is initiated by addition of 10 mM acetate buffer instead of the enzyme sample solution, and df represents the degree of dilution.\nEach solution was combined by the procedure described below, and the absorbance was measured to determine the GDH activity of the crude enzyme solution. […]"}, "[2]": {"experiment": "GOD activity measurement (4-AA/TOOS/POD, absorbance at 555 nm)", "assay_type": "biochemical", "settings": "131 mM D-glucose, 37° C.", "method": "The GDH activity was measured according to the method of Example 1, and GOD activity was measured by the following method using 4-aminoantipyrine (4-AA) and N-ethyl-N-(2-hydroxy-3-sulfopropyl)-3-methylaniline (TOOS). After mixing 30.0 mL of 100 mM phosphate buffer (pH 7.0), 6.0 mL of an 833 mM D-glucose solution, 0.3 mL of a 25 mM 4-AA solution, 0.3 mL of a 40 mM TOOS solution and 0.3 mL of a 500 U/mL, POD solution, 3.0 mL of the mixture was transferred to a test tube and warmed at 37° C. for 5 minutes, after which 0.1 mL of enzyme sample solution was added and reaction was initiated. The increase in absorbance at 555 nm per minute (ΔA555) was measured as the enzyme reaction proceeded, and the GOD activity was calculated by the formula shown below. […]\nThe value of 3.1 in the formula is the liquid volume (mL) of reaction reagents+enzyme reagent, 32.8 is the millimolar molecular absorption coefficient (cm^2/μmol) under the activity measuring conditions, 0.5 is the number of molecules of quinoneimine dye produced when 1 molecule of H2O2 is reduced, 0.1 is the liquid volume (mL) of the enzyme solution, 1.0 is the optical path length (cm) of the cell, ΔA555blank is the increase in absorbance at 555 nm per minute, when the reaction is initiated by addition of 10 mM acetate buffer instead of the enzyme sample solution, and df represents the degree of dilution."}},
  "data": [
    {"molecule": "B1", "values": [
      {"measurement": "GDH activity", "setting": "[1]", "result": 3.50, "unit": "U/mL"},
      {"measurement": "GOD activity", "setting": "[2]", "result": 9.38, "unit": "U/mL"}
    ]}
  ]
}
